The target in series [1] is T1, α-synCas (synthetic ancestral Cas12a-like nuclease, ASR) (synthetic construct (ancestral …, UniProt PDB:8QWE_1 1-1261)).
T1 chain: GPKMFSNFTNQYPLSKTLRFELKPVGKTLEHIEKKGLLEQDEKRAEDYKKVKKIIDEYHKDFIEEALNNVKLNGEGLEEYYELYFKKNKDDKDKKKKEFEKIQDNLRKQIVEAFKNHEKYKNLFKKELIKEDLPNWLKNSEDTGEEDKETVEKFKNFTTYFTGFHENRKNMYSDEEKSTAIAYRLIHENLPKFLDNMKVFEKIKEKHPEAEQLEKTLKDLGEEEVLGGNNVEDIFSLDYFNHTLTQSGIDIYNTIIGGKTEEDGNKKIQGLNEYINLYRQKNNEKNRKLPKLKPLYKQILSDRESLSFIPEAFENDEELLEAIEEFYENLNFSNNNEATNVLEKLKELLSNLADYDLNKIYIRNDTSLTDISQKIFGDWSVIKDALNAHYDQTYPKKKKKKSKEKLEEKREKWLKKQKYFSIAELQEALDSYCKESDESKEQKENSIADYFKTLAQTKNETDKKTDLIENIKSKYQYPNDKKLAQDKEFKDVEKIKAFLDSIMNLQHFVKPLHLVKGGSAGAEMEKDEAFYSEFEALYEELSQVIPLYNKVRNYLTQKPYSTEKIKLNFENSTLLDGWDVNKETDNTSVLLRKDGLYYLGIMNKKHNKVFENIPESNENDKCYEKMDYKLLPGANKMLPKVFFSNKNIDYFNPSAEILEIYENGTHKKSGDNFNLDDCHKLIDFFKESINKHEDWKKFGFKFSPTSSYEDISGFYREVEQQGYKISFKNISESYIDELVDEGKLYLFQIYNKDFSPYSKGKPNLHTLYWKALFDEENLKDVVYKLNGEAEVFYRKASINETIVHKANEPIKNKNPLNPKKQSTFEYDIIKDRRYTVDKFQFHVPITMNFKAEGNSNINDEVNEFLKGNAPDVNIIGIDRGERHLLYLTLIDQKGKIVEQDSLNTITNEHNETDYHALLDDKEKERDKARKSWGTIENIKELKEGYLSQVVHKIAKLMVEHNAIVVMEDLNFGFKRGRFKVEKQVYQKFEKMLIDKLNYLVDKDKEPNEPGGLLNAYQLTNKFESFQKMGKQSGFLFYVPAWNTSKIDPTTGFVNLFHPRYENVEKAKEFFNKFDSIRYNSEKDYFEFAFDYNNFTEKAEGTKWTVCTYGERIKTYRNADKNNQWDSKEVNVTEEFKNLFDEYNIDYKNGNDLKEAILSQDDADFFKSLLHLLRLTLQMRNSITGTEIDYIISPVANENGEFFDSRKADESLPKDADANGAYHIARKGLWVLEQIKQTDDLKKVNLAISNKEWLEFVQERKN
As to the kind of experiment: cryo-EM.

Series [2] deals with T1, α-synCas (synthetic ancestral …). Nature of the series: size exclusion chromatography. On the technique in general: Size exclusion chromatography separates by hydrodynamic size, large species first.

B1: crRNA + target dsDNA (cis DNA), ternary complex (mixed)
RNA: AAUUUCUACUGUUGUAGAUUCCUAAGGCGUUACCCCAAU
DNA 1: CTAGCATATTTATCCTAAGGCGTTACCCCAATGGGAGGG
DNA 2: CCCTCCCATTGGGGTAACGCCTTAGGATAAATATGCTAG
On to B1, for which the binding result in series [1] is given as “binds”.
For AAUUUCUACUGUUGUAGAUUCCUAAGGCGUUACCCCAAU (structured_RNA) [crRNA (cryo-EM)], the binding result in series [2] is listed as “binds”.

For the origin of these results see paper doi:10.1101/2023.11.12.566739.
